Laboratory results: patent US20060172935A1 (published 2006)

B1: 125I-human PK2 (iodinated human prokineticin 2) (ligand)
chain: AVITGACDKDSQCGGGMCCAVSIWVKSIRICTPMGKLGDSCHPLTRKVPFFGRRMHHTCPCLPGLACLRTSFNRFICLAQK
modifications: radioiodinated with 125I (residue not stated for this assay)
notes: also called iodinated PK2

Experiments:
[1] = biological target: PKR2 stably expressed in Chinese Hamster Ovary cells (CHO-PKR2); assay: cell-based or functional assay
[2] = biological target: T1, mouse PK2 receptor (mouse, UniProt Q8K458 1-381); assay: PK2 receptor binding assay with radioiodinated ligand (FIG. 11)
T1 construct: G-protein coupled receptor; also called PKR2; mouse PKR2
T1 sequence (Q8K458 whole entry): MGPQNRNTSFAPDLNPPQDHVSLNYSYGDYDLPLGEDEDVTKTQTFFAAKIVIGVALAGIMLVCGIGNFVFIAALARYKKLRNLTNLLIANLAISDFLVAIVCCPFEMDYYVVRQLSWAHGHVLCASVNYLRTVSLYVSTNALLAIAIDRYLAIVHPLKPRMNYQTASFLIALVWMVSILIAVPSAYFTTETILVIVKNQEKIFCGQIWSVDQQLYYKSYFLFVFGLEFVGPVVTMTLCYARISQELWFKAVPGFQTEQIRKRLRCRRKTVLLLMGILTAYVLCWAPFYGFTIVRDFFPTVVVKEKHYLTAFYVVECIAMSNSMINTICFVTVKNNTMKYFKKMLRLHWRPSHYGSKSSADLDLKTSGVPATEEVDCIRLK
Text: An exemplary assay for determining binding of detectably labeled PK2, PK1 or PK2/PK1 chimera to PK2 receptor or PK1 receptor is the radioligand filter binding assay described in Li et al. Molecular Pharmacology 59:692-698 (2001)). […] A variety of other low- and high-throughput assays suitable for detecting selective binding interactions between a receptor and a ligand are known in the art. Such assays include, for example, fluorescence correlation spectroscopy (FCS) and scintillation proximity assays (SPA) reviewed in Major, J. Receptor and Signal Transduction Res. 15:595-607 (1995); and in Sterrer et al., J. Receptor and Signal Transduction Res. 17:511-520 (1997)). Binding assays can be performed in any suitable assay format including, for example, cell preparations such as whole cells or membranes that contain PK2 receptor or PK1 receptor, or substantially purified PK2 receptor polypeptide or PK1 receptor, either in solution or bound to a solid support.

Molecule	EC50, calcium mobilization [1]	fold stimulation of CLOCK:BMAL1-mediated transcription of the 2.8 kb PK2 promoter (luciferase) [1]	Kd [2]
purified recombinant mouse PK2 (from UniProt Q9QXU7 27-128) (ligand)	7.3 nM	4 fold	–
B1	–	–	~1 nM
